Reference: PMC5514376 (The Journal of investigative dermatology, 2016)

Molecular target: the molecule itself
Test: crystal structure

B1: keratin 1-keratin 10 helix 2B heterodimer (K1-K10-2B) (complex, human)
chain 1: ESLYQSKYEELQITAGRHGDSVRNSKIEISELNRVIQRLRSEIDNVKKQISNLQQSISDAEQRGENALKDAKNKLNDLEDALQQAKEDLARLLRDYQELMNTKLALDLEIATYRTLLEGE
chain 2: EAWFNEKSKELTTEIDNNIEQISSYKSEITELRRNVQALEIELQSQLALKQSLEASLAETEGRYCVQLSQIQAQISALEEQLQQIRAETECQNTEYQQLLDIKIRLENEIQTYRSLLEGE
binding result: binds
